Legend:
[1] = target: T1, Recombinant mouse IL-1RAP Fc fusion protein (Sino Biologicals, catalog no. 52657-M02H) (mouse, UniProt Q61730 21-350); assay: SPR, mouse IL-1RAP-Fc captured, Fab as analyte
T1 construct: Bought; not shown: Fc part of the bought fusion protein
T1 sequence: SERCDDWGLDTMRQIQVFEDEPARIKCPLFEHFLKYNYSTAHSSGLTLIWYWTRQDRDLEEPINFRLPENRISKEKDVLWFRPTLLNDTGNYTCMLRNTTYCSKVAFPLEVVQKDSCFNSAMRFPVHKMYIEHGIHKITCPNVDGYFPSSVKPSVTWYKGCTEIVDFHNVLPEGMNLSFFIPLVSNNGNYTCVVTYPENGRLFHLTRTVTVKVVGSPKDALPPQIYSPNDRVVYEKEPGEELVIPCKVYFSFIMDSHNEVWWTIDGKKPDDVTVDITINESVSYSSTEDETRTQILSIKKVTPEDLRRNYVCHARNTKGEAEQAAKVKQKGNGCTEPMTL
Experimental: (§1) Surface plasmon resonance (SPR) was used to measure the binding affinities of the Fab fragments for human, cynomolgus monkey and/or mouse IL-1RAP. Affinities were measured on a BIACORE™ T200 instrument (BIACORE™, GE […]®) at 25° C. and analyzed with the BIACORE™ T200 Evaluation Software (v3.1). Measurements were performed on Series S CM5 sensor chips (BIACORE™ T200, BIACORE™, GE […]®, catalog no. BR100530) coupled with anti-human IgG Fc (BIACORE™, GE […]®, catalog no. BR100839) using a commercial amine coupling kit (BIACORE™, GE […]®, catalog no. BR100050) or on Series S BiotinCAPture chips (BIACORE™, GE […]®, catalog no. 28920234). SPR measurements were performed with commercially available recombinant human IL-1RAP Fc fusion protein (Acrobiosystems, catalog no. ILP-H5256) and recombinant mouse IL-1RAP Fc fusion protein (Sino Biologicals, catalog no. 52657-M02H) or with biotinylated recombinant cynomolgus monkey IL-1RAP-avi-his protein produced in-house (SEQ ID NO. 2).
(§2) The affinities to human, cynomolgus monkey and mouse IL-1RAP were assessed by immobilizing IL-1RAP and using Fab fragments as analyte. Around 100 RU of human or mouse IL-1RAP Fc fusion protein were captured on fc2 of a Series S CM5 sensor chip coupled with anti-human IgG Fc and around 150 RU of biotinylated cynomolgus monkey IL-1RAP protein were captured on fc2 of a Series S BiotinCAPture chip. Fab fragments were injected in single cycle kinetic at different concentrations ranging from 7.8 to 500 nM, in HBS-EP+ buffer (BIACORE™, GE […]®, catalog no. BR100669) at a flow rate of 30 μl/min for 3 min on fc1 and fc2 (fc1 being used as reference). Dissociation was monitored for 5 min. After each cycle, the surface was regenerated with 60 μl of regeneration solution provided with anti-human IgG Fc capture kit (BIACORE™, GE […]®, catalog no. BR100839) or BiotinCAPture kit (BIACORE™, GE […]®, catalog no. 28920234) respectively. Experimental data were processed using the 1:1 Langmuir kinetic fitting model. Measurements included zero-concentration samples for referencing. Chi², U- and residual values were used to evaluate the quality of a fit between the experimental data and individual binding models.

[2] = target: T2, Recombinant cynomolgus monkey IL-1RAP-ECD(S21-E359)-avi-his protein (cynomolgus monkey, UniProt P59822 21-359 (rhesus entry)); assay: SPR, biotinylated cyno IL-1RAP-avi-his captured, Fab as analyte, 1:1 fit
T2 construct: also called cyno IL-1RAP-ECD-Avi-His; recombinant cynomolgus monkey IL-1RAP-avi-his protein
T2 sequence: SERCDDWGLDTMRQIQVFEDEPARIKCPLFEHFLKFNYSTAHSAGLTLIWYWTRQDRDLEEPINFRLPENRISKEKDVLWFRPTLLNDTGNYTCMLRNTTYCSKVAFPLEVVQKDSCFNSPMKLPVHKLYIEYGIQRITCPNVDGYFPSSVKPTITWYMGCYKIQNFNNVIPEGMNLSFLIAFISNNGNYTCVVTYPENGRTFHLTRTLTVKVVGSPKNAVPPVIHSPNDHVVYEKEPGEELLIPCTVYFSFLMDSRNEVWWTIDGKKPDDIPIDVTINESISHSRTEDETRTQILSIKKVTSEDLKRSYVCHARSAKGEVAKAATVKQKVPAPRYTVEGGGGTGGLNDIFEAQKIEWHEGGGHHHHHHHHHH
Experimental: as §1, §2

[3] = target: T3, Recombinant human IL-1RAP Fc fusion protein (Acrobiosystems, catalog no. ILP-H5256) (human, UniProt Q9NPH3 21-359, limits assumed); assay: SPR, human IL-1RAP-Fc captured, Fab as analyte, 1:1 fit
T3 construct: Bought; not shown: Fc part of the bought fusion protein
T3 sequence: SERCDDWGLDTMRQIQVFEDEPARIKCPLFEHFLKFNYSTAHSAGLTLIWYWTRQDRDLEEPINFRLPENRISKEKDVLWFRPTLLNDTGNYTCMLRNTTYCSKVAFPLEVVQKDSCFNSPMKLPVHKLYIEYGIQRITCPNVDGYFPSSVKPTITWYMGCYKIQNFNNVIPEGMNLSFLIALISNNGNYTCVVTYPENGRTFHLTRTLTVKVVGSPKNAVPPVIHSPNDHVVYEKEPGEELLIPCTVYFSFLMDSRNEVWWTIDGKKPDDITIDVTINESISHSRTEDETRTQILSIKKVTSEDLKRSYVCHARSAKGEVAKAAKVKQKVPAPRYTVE
Experimental: as §1, §2

| Binder | binding result [1] | Kd [2] | Kd [3] |
| --- | --- | --- | --- |
| Anti-IL-1RAP-UCP02-A6-Fab (Fab, V domains shown) VH: QVQLVQSGAEVKKPGSSVKVSCKASGGAFRIYAIHWVRQAPGQGLEWMGGILASGGGAVYAQKFQGRVTITADESTSTAYMELSSLRSEDTAVYYCARAKDIYGYGYGDIWGQGTLVTVSS VL: not shown | no binding (tested: 7.8 to 500 nM Fab) | 197 nM | 223 nM |
| Anti-IL-1RAP-UCP02-C8-Fab (Fab, V domains shown, also called anti-IL-1RAP-C8; anti-IL-1RAP-C8 Fab) VH: QVQLVQSGAEVKKPGSSVKVSCKASGGQFSEYAIQWVRQAPGQGLEWMGYIIPLHGQVDYAQKFQGRVTITADESTSTAYMELSSLRSEDTAVYYCARGQTLYDSGRQFDIWGQGTLVTVSS VL: not shown | no binding (tested: 7.8 to 500 nM Fab) | 2.2 nM | 2.2 nM |
| Anti-IL-1RAP-UCP02-D2-Fab (Fab, V domains shown) VH: QVQLVQSGAEVKKPGSSVKVSCKASGGRFSDSAIHWVRQAPGQGLEWMGYILPQFGAPLYAQKFQGRVTITADESTSTAYMELSSLRSEDTAVYYCARGSYYGVVGYVPDDYWGQGTLVTVSS VL: not shown | no binding (tested: 7.8 to 500 nM Fab) | 50.9 nM | 49 nM |
| Anti-IL-1RAP-UCP02-H8-Fab (Fab, V domains shown) VH: QVQLVQSGAEVKKPGSSVKVSCKASGGVFSGYAISWVRQAPGQGLEWMGGIIPEFGATNYAQKFQGRVTITADESTSTAYMELSSLRSEDTAVYYCARHSSAYSPWFDYWGQGTLVTVSS VL: not shown | no binding (tested: 7.8 to 500 nM Fab) | 297 nM | 328 nM |
| Anti-IL-1RAP-UCP02-C9-Fab (Fab, V domains shown) VH: QVQLVQSGAEVKKPGSSVKVSCKASGGVFSYYAFHWVRQAPGQGLEWMGGIIPGYGATFYAQKFQGRVTITADESTSTAYMELSSLRSEDTAVYYCARPVSYSSGWYDYWGQGTLVTVSS VL: not shown | no binding (tested: 7.8 to 500 nM Fab) | 27.8 nM | 35.6 nM |
| Anti-IL-1RAP-UCP02-H9-Fab (Fab, V domains shown) VH: QVQLVQSGAEVKKPGSSVKVSCKASGGPFSSYALSWVRQAPGQGLEWMGGIIPHHGATYYAQKFQGRVTITADESTSTAYMELSSLRSEDTAVYYCARHPDVYTPWFDVWGQGTLVTVSS VL: not shown | no binding (tested: 7.8 to 500 nM Fab) | 682 nM | 907 nM |
| Anti-IL-1RAP-UCP02-G8-Fab (Fab, V domains shown) VH: QVQLVQSGAEVKKPGSSVKVSCKASGGFFSIYAISWVRQAPGQGLEWMGGIAPAAGIAEYAQKFQGRVTITADESTSTAYMELSSLRSEDTAVYYCARGQSPGRVREEYWYDYWGQGTLVTVSS VL: not shown | no binding (tested: 7.8 to 500 nM Fab) | 116 nM | 73.5 nM |
| Anti-IL-1RAP-UCP02-A4-Fab (Fab, V domains shown) VH: QVQLVQSGAEVKKPGSSVKVSCKASGGVFSYYAISWVRQAPGQGLEWMGAIIPDFGHTIYAQKFQGRVTITADESTSTAYMELSSLRSEDTAVYYCARASPYKGWWDYWGQGTLVTVSS VL: not shown | no binding (tested: 7.8 to 500 nM Fab) | 103 nM | 84.3 nM |
| Anti-IL-1RAP-UCP03-A3-Fab (Fab, V domains shown) VH: QVQLVQSGAEVKKPGSSVKVSCKASGGLFNENAIHWVRQAPGQGLEWMGGIIPDVGAAFYAQKFQGRVTITADESTSTAYMELSSLRSEDTAVYYCARGSIYTAWFAVWGQGTLVTVSS VL: not shown | no binding (tested: 7.8 to 500 nM Fab) | 177 nM | 137 nM |
| Anti-IL-1RAP-UCP03-C1-Fab (Fab, V domains shown) VH: QVQLVQSGAEVKKPGSSVKVSCKASGGRFSSNAISWVRQAPGQGLEWMGGIIPHFGAVYYAQKFQGRVTITADESTSTAYMELSSLRSEDTAVYYCARGSVYTGWFDNWGQGTLVTVSS VL: not shown | no binding (tested: 7.8 to 500 nM Fab) | 761 nM | 573 nM |
| Anti-IL-1RAP-UCP03-F4-Fab (Fab, V domains shown) VH: QVQLVQSGAEVKKPGSSVKVSCKASGGGFSEYAIHWVRQAPGQGLEWMGAILPEQGAAYYAQKFQGRVTITADESTSTAYMELSSLRSEDTAVYYCARVGLYVPYMDIWGQGTLVTVSS VL: not shown | no binding (tested: 7.8 to 500 nM Fab) |  | 888 nM |
| Anti-IL-1RAP-UCP02-G11-Fab (Fab, V domains shown) VH: QVQLVQSGAEVKKPGSSVKVSCKASGGQFNDYAIHWVRQAPGQGLEWMGYIIPAYGQAEYAQKFQGRVTITADESTSTAYMELSSLRSEDTAVYYCARVPYSTAYFDYWGQGTLVTVSS VL: not shown | no binding (tested: 7.8 to 500 nM Fab) | 345 nM | 260 nM |
| Anti-IL-1RAP-UCP03-B6-Fab (Fab, V domains shown) VH: QVQLVQSGAEVKKPGSSVKVSCKASGDPFSVYIIHWVRQAPGQGLEWMGYIIAQQGSASYAQKFQGRVTITADESTSTAYMELSSLRSEDTAVYYCARVPDPYSGHFDYWGQGTLVTVSS VL: not shown | no binding (tested: 7.8 to 500 nM Fab) | 756 nM | 545 nM |
| Anti-IL-1RAP-UCP03-A2-Fab (Fab, V domains shown) VH: QVQLVQSGAEVKKPGSSVKVSCKASGGKFNFDVIHWVRQAPGQGLEWMGGIIPDFASTHYAQKFQGRVTITADESTSTAYMELSSLRSEDTAVYYCARVPDYYTGWMAYWGQGTLVTVSS VL: not shown | no binding (tested: 7.8 to 500 nM Fab) | 589 nM | 582 nM |
| Anti-IL-1RAP-UCP02-C5-Fab (Fab, V domains shown) VH: QVQLVQSGAEVKKPGSSVKVSCKASGGHFNIYAISWVRQAPGQGLEWMGYIIPSLGAVDYAQKFQGRVTITADESTSTAYMELSSLRSEDTAVYYCARASIYHGWMAYWGQGTLVTVSS VL: not shown | no binding (tested: 7.8 to 500 nM Fab) | 334 nM | 368 nM |
| Anti-IL-1RAP-UCP02-G3-Fab (Fab, V domains shown) VH: QVQLVQSGAEVKKPGSSVKVSCKASGGYLNEYAIHWVRQAPGQGLEWMGAVIPRYGQTYYAQKFQGRVTITADESTSTAYMELSSLRSEDTAVYYCARPLGYSYGWFDYWGQGTLVTVSS VL: not shown | no binding (tested: 7.8 to 500 nM Fab) | 296 nM | 230 nM |
| Anti-IL-1RAP-UCP03-B4-Fab (Fab, V domains shown) VH: QVQLVQSGAEVKKPGSSVKVSCKASGGPFSQHAISWVRQAPGQGLEWMGGIIPFEGVAFYAQKFQGRVTITADESTSTAYMELSSLRSEDTAVYYCARSSSYYSWLDYWGQGTLVTVSS VL: not shown | no binding (tested: 7.8 to 500 nM Fab) | 220 nM | 221 nM |
